Measured values from patent US20160115234A1 (Biogen, published 2016).
Numbering of substitutions follows the chain as printed.

B1: 28C2 (antibody, V domains shown)
VH: QVTLKASGPGIVQPSQTLSLTCSFSGFSLNTSGMGVGWIRQPSGKGLEWLAHIWWDDDKRYNPALKSRLTISKDTSNNQIFLKIASVDTADTATYYCARSHYYGTFYFDYWGQGTTLTVSS
VL: DVQITQSPSYLAASPGETITINCRASKSISKYLAWYQEKPGTTYKLLIYSGSTLQSGIPSRFSGSGSGTDFTLTISSLEPEDFAMYYCQQHIEYPWTFGGGTKLEIKR
notes: Mouse hybridoma monoclonal tested as supernatant
B2: 9D6 (antibody, V domains shown)
VH: QVTLKESGPGILQPSQTLSLTCSFSGFSLSTSGMGVGWIRQSSGKGLEWLAHIWWDDDKRYNPTLKSRLTISKDTSNNQVFLKIANMDTADIATYYCARSHYNGTFYFDFWGQGITLTVSS
VL: B1 VL with T42K, Y44N, S77T
notes: as for B1
B3: 1H6 (antibody, V domains shown)
VH: QVQLQQSGAELVRPGTSVKVSCKASGYAFTNYLIEWVKQRPGQGLEWIGVINPGSGGTNYNEKFKGKATLTADKSSSTAYMHLSSLTSDDSAVYFCARGRYEWYFDVWGAGTTVTVSS
VL: DIQMTQTTSSLSASLGDRVTISCRASQDITNYLNWYQRKPDGTVKLLIYYTSRLHSGVPSRFSGSGSGTDYSLTISNLEQEDIATYFCQQGYTLPYTFGGGTKLEIKR
notes: as for B1
B4: 12B2 (antibody, V domains shown)
VH: QVQLQQSGAELTKPGASVKISCKATGYTFSSYWIEWVKQRPGHGLEWIGEILPGSGITKYNDKFKGKATFTADTSSNTAYMQLSSLTSEDSAVYSCARLISYYYAMDYWGQGTSVTVSS
VL: B3 VL with T30S, R38Q, Y92N, Y96P
notes: as for B1
B5: 38A8 (antibody, V domains shown)
VH: B3 VH with V37I, H82Q
VL: B3 VL with T30S, Q37L, R38Q, T74S
notes: as for B1
B6: 28F4 (antibody, V domains shown)
VH: EVQLVESGGDLVKPGGSLKLSCAASGFTFSNYGMSWVRQTPDKRLEWVATISSGGTYTYYPDSVKGQFTIFRDNAKNTLYLQMSSLKSEDTAMYYCTRRDYDYEGFAYWGQGTLVTVS
VL: DIVLTQSPATLSVTPGDSVSLSCRASQSISNNLHWYQQKSHESPRLLIKYASHSISGIPSRFSGSGSGTDFTLSINSVETEDFGMYFCQQSNNWPFTFGSGTKLEIKR
notes: as for B1
B7: 34D10 (antibody, V domains shown)
VH: EVKLVESGGGLVKPGGSLKLSCAASGFTFSAYAMSWVRQTPEKRLEWVASISSGGTTYYPDSVKRRFTISRDNARNILYLQMSSLRSEDTAMYYCTRGGDYGYALDYWGQGTSVTVSS
VL: ENVLTQSPAIMSASLGEKVTMSCRASSSVNYMYWYQQKSDASPKLWIYYTSNLAPGVPARFSGSGSGNSYSLTISSMEGEDAATYYCQQFSSSPWTFGGGTKLEIKR
notes: as for B1
B8: 4B11 (antibody, V domains shown)
VH: B7 VH with A31S, E46A, T56N, T57I, Y59F, R65G, N73D, S83R, T96A, L105M
VL: B7 VL with S22N, Y48F, T101S
notes: as for B1
B9: 36A8 (antibody, V domains shown)
VH: B7 VH with K3R, A31T, S52N, S53G, T56S, R65G, S83R, T96A
VL: B7 VL with S22N, Y48F, T101S
notes: as for B1
B10: 18F7 (antibody, V domains shown)
VH: QVQLKESGPGLVAPSQSLSITCTVSGFSLTSYGVSWVRQPPGKGLEWLGIIWGDGSTNYHSVLKSRLSISKDNSKSQVFLKLNSLQTDDTATYYCAKQDFDVWGAGTTVTVSS
VL: DVQMIQSPFSLSASLGDIVTMTCQASQGTSINLNWFQQKPGKAPKLLIYGVSNLEDGVPSRFSGSRYGTDFTLTIGSLEDEDMATYFCLQHSYLPYTFGGGTKLEIKR
notes: as for B1
B11: Recombinant FVIIa (enzyme)
chain 1: ANAFLEELRPGSLERECKEEQCSFEEAREIFKDAERTKLFWISYSDGDQCASSPCQNGGSCKDQLQSYICFCLPAFEGRNCETHKDDQLICVNENGGCEQYCSDHTGTKRSCRCHEGYSLLADGVSCTPTVEYPCGKIPILEKRNASKPQGR
chain 2: IVGGKVCPKGECPWQVLLLVNGAQLCGGTLINTIWVVSAAHCFDKIKNWRNLIAVLGEHDLSEHDGDEQSRRVAQVIIPSTYVPGTTNHDIALLRLHQPVVLTDHVVPLCLPERTFSERTLAFVRFSLVSGWGQLLDRGATALELMVLNVPRLMTQDCLQQSRKVGDSPNITEYMFCAGYSDGSKDSCKGDSGGPHATHYRGTWYLTGIVSWGQGCATVGHFGVYTRVSQYIEWLQKLMRSEPRPGVLLRAPFP
notes: domain: light chain of FVIIa;domain: heavy chain of FVIIa; Untargeted control; also called rFVIIa; recombinant FVIIa alone (no targeting moiety)

What follows are binders tested against T1, human GPIIb/IIIa (Calbiochem Cat No. 528240) (human, UniProt P08514 32-1039; P05106 27-788) (assay: ELISA, hybridoma supernatant).
T1 construct: Bought purified protein coated on ELISA plates; How the α/β subunit specificity ELISA was set up is not described; also called αIIbβ3; glycoprotein IIb/IIIa
B1: binds. B2: binds. B3: binds. B4: binds. B5: binds. B6: binds. B7: binds. B8: binds. B9: binds. B10: binds.

These binders were tested against T2, GPIIb/IIIa nanodiscs (recombinant biotinylated, HPC4-tagged GPIIb/IIIa) (human, UniProt P08514 32-1039; P05106 27-788) (assay: SPR, biotinylated GPIIb/IIIa nanodiscs on a streptavidin chip).
T2 construct: Transiently expressed in HEK293 cells, purified, and put into nanodiscs with scaffold protein and phospholipids; It carries a tag for in vivo biotinylation and an HPC4 tag; also called GPIIb/IIIa receptor; biotinylated GPIIb/IIIa receptor
B11: no binding.

The binders below were run against T3, GPIIb/IIIa on human platelets (human, UniProt P08514 32-1039; P05106 27-788) (assay: flow cytometry on platelets, hybridoma supernatant (signal higher than in ELISA)).
T3 construct: Native receptor on gel-purified human platelets or on platelets in citrated human whole blood; also called GPIIb/IIIa receptor
B6: binds. B10: binds.

What follows are binders tested against T3, GPIIb/IIIa on human platelets (assay: flow cytometry, protein spiked into citrated human whole blood, FITC anti-FVII on CD42b-gated platelets).
B11: no binding.
